The source of these data is publication doi:10.1101/2024.10.13.618061 (bioRxiv, 2024).

The series deals with the molecule itself. Description: negative-staining EM.

B1: wheat Sr35 (Triticum monococcum; TmSr35) [change]/[change], untagged (receptor)
chain: MEIAMGAIGSELPKEGELLIGEITLEKKVRKGIESLITELKLMQAVLSKVSKVPADQLDEGVKIWAGNVKELSYQMEDIVDAFMVRVGDGGESTNPKNRVKKILKKVKKLFKNGKDLHRISAALEEVVLQAKQLAELRQRYEQEMRDTSANTSVDPRMMALYTDVTELVGIEETRDKLINMLTEGDDWSKHPLKTISIVGFGGLGKTTLAKAAYDKIKVQFDCGAFVSVSRNPEMKKVLKDILYGLDKVKYENIHNAARDEKYLIDDIIEFLNDKRYLIVIDDIWNEKAWELIKCAFSKKSPGSRLITTTRNVSVSEACCSSEDDIYRMEPLSNDVSRTLFCKRIFSQEEGCPQELLKVSEEILKKCGGVPLAIITIASLLANKGHIKAKDEWYALLSSIGHGLTKNRSLEQMKKILLFSYYDLPSYLKPCLLYLSIFPEDREIRRARLIWRWISEGFVYSEKQDISLYELGDSYFNELVNRSMIQPIGIDDEGKVKACRVHDMVLDLICSLSSEENFVTILDDPRRKMPNSESKVRRLSIQNSKIDVDTTRMEHMRSVTVFSDNVVGKVLDISRFKVLRVLDLEGCHVSDVGYVGNLLHLRYLGLKGTHVKDLPMEIGKLQFLLTLDLRGTKIEVLPWSVVQLRRLMCLYVDYGMKLPSGIGNLTFLEVLDDLGLSDVDLDFVKELGRLTKLRVLRLDFHGFDQSMGKALEESISNMYKLDSLDVFVNRGLINCLSEHWVPPPRLCRLAFPSKRSWFKTLPSWINPSSLPLLSYLDITLFEVRSEDIQLLGTLPALVYLEIWNYSVFEEAHEVEAPVLSSGAALFPCATECRFIGIGAVPSMFPQGAAPRLKRLWFTFPAKWISSENIGLGMRHLPSLQRVVVDVISEGASREEADEAEAALRAAAEDHPNRPILDIW
On to B1, for which the “stoichiometry N” value was found to be 5.
